The data set concerns MS2 coat protein. Briefly: apparent KD of MS2 coat protein; designed switch direction (-1 OFF switch, 1 ON switch): -1; higher = weaker reporter binding. A digest of the protocol:
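Three titration conditions were used: no input, 200 uM small-molecule ligand, and an oligonucleotide input. In each, SNAP-549-labelled MS2 coat protein was raised from 0.7 or 1.5 nM, doubling, to 3 µM over designed RNA switches transcribed on Illumina chips by stalled E. coli RNA polymerase. Curve fits of normalised cluster fluorescence gave values whose per-design median over clusters is the apparent KD.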

Setting [1] is: Eterna round: R95, input ligand: microRNA oligo, concentration not stated.
[2] abbreviates: input ligand: microRNA oligo, concentration not stated.
[3] abbreviates: Eterna round: R95, input ligand: FMN 200 uM.
[4] abbreviates: Eterna round: R95, input ligand: none.

For the sequence “UUUUUACAUGAGGAUCACCCAUGUCAGGAUAUCGUUAUAUUUUAUUAUUUUAUUUUUUCGAGAAGGGACUAUUA [My solution] (puzzle: Exclusion 1)”, the “apparent KD of MS2 coat protein” value under setting [1] was determined as 74.6 nM.
With “UUUUUACAUGAGGAUCACCCAUGUCAGGAUAUGGUUAUAUUUUAUUAUUUUAUUUUUUCCAGAAGGGACUAUUA [My solution] (puzzle: Exclusion 1)”, under setting [1], the “apparent KD of MS2 coat protein” value amounted to 273 nM.
With “UUUUUAUAACAAGGAUAUACUAAACAUGAGGAUCACCCAUGUAAUAUUAUGAGUGAGAGAGAUAAGUAGAAGGUGUAUUAUUUU [JMF solution 3] (Eterna round: R96, puzzle: Exclusion NG 2)”, the “apparent KD of MS2 coat protein” value under setting [2] came to 99.6 nM.
For “UUUUUAUAAGGAUAUAUGUGGAUAAUUUUUAUAUGAAAAUUACAUGAGGAUCACCCAUGUAGAAGGUAUGGAGG [-13.9, -11.8 kcal, 35% A] (Eterna round: R97, puzzle: Exclusion 2)”, the “apparent KD of MS2 coat protein” value is 24 nM (input ligand: FMN 200 uM) and 39.2 nM (input ligand: none).
With “UUUUUAUAUGAAGGAUAUACUUAACAUGAGGAUCACCCAUGUGGUGUUGUGAGUGAGAGAGUUUAGUAGAAGGUCAAUUAUUUU [JMF's solution 5] (Eterna round: R96, puzzle: Exclusion NG 2)”, the “apparent KD of MS2 coat protein” value by setting is: (input ligand: FMN 200 uM) 714 nM; under setting [2], 280 nM; (input ligand: none) 300 nM.
For “UUUUUAUAUGAAGGAUAUACUUAACAUGAGGAUCACCCAUGUGGUGUUGUGAGUGAGUGAGUUUAGUAGAAGGUCAAAGAUUUU [JMF's solution 57] (Eterna round: R96, puzzle: Exclusion NG 2)” the same measures were 1550 nM, 304 nM and 295 nM.
For “UUUUUAUAUGAAGGAUAUACUUAACAUGAGGAUCACCCAUGUGGUGUUGUGAGUGAGUGAGUUUAGUAGAAGGUCAAGUAUUGU [JMF's solution 39] (Eterna round: R96, puzzle: Exclusion NG 2)”, the “apparent KD of MS2 coat protein” value (input ligand: FMN 200 uM) worked out at 891 nM, the “apparent KD of MS2 coat protein” value under setting [2] turned out to be 347 nM and the “apparent KD of MS2 coat protein” value (input ligand: none) was 441 nM.
Taken in the same sequence, the figures for “UUUUUAUAUGAAGGAUAUACUUAACAUGAGGAUCACCCAUGUGGUGUUGUGAGUGAGUGAGUUUAGUAGAAGGUCAAUGAUUGU [JMF's solution 60] (Eterna round: R96, puzzle: Exclusion NG 2)” were 918 nM, 216 nM and 369 nM.
For “UUUUUAUAUGAAGGAUAUACUUAACAUGAGGAUCACCCAUGUGGUGUUGUGAGUGAGUGAGUUUAGUAGAAGGUCAAUUCUUUU [JMF's solution 11] (Eterna round: R96, puzzle: Exclusion NG 2)” the same measures were 957 nM, 395 nM and 510 nM.
For the sequence “UUUUUCAGGCCAGAUCCUCACAUGAGGAUCACCCAUGUGCUCGUCUGUUUUCGCACUAUCACGUUUGUGAUAGUGCU [Level Boss var2-12] (puzzle: Sensor v3, turn-off variant 1)”, the “apparent KD of MS2 coat protein” value reads like this: under setting [3], 207 nM; under setting [1], 33.5 nM; under setting [4], 216 nM.
In the case of “UUUUUCAGGCCAGAUCCUCACAUGAGGAUCACCCAUGUGCUCGUCUGUUUUCGCACUAUCUUUUUUUUGAUAGUGCU [Level Boss var2-13] (puzzle: Sensor v3, turn-off variant 1)”, the “apparent KD of MS2 coat protein” value runs as follows: under setting [3], 291 nM; under setting [1], 26.8 nM; under setting [4], 309 nM.
In the case of “UUUUUCAGGCCAGAUCCUCACAUGAGGAUCACCCAUGUGCUCGUCUGUUUUCGCACUAUCUUUUUUUUGUUAGUGCU [Level Boss var2-14] (puzzle: Sensor v3, turn-off variant 1)”, the “apparent KD of MS2 coat protein” value under setting [3] is 287 nM, the “apparent KD of MS2 coat protein” value under setting [1] stood at 22.7 nM and the “apparent KD of MS2 coat protein” value under setting [4] came to 322 nM.
On to “UUUUUCUUUGUAGGAUAUCGUUUUUUUUUUUUUCGAGAAGGACAUGAGGAUCACCCAUGUUUCAAAAUUUUUUUUUUUUUUUUU [First try] (Eterna round: R96, puzzle: Exclusion NG 1)”, for which the “apparent KD of MS2 coat protein” value is, setting by setting: (input ligand: FMN 200 uM) 25.1 nM; under setting [2], 13.3 nM; (input ligand: none) 17.8 nM.
As to “UUUUUGUCAGGAUAUGACUAGAUGCACGUUAGUGUGUUUACUUAGAAGGGACAUGAGGAUCACCCAUGUAUUCC [Bring Us a Shrubbery-14] (puzzle: Exclusion 4)”, the “apparent KD of MS2 coat protein” value under setting [1] stood at 26.4 nM.
“UUUUUGUCAGGAUAUGAGUCGUAGAACAAUAGUACUACGUCUCAGAAGGGACAUGAGGAUCACCCAUGUGCCUC [Fiskers Ex 4 Super Stable 44 mod 28] (puzzle: Exclusion 4)”: under setting [1], the “apparent KD of MS2 coat protein” value worked out at 26.2 nM.
The same measure, in the same setting: the figure for “UUUUUGUCAGGAUAUGCGUAGUAGAACAAUAGUACUACUACGUAGAAGGGACAUGAGGAUCACCCAUGUUCCUC [Fiskers Ex 4 Super stable 44 mod 17] (puzzle: Exclusion 4)” is 13.9 nM.
Regarding “UUUUUGUGAGGAUAUGCGUAGUAGAACAAUAGUACUACUACGUAGAAGGCACAUGAGGAUCACCCAUGUUCCUC [Fiskers Ex 4 Super stable 44 mod 15] (Eterna round: R96, puzzle: Exclusion 4)”, the “apparent KD of MS2 coat protein” value turned out to be 339 nM (input ligand: FMN 200 uM), 34.7 nM under setting [2] and 43.1 nM (input ligand: none).
On to “UUUUUGUGAGGAUAUGCGUAGUAGAACAAUAGUACUACUACGUAGAAGGCACAUGAGGAUCACCCAUGUUCCUC [Fiskers Ex 4 Super stable 44 mod 15] (puzzle: Exclusion 4)”, for which, under setting [1], the “apparent KD of MS2 coat protein” value turned out to be 36.4 nM.
Regarding “UUUUUUGGGCAAGGAUAUCCUGUGCGGUUCCGGCUCGUGUCUGUUACAUGAGGAUCACCCAUGUGGGAGAAGGUGCCUGUGGUU [Design 86] (Eterna round: R96, puzzle: Exclusion NG 2)”, the “apparent KD of MS2 coat protein” value runs as follows: (input ligand: FMN 200 uM) 183 nM; under setting [2], 37.3 nM; (input ligand: none) 43 nM.
As to “UUUUUUGUUGUGAGGAUAUCGUAUUCUUUUUGUUACGAGAAGGCACAUGAGGAUCACCCAUGUUUCUUGAUGUU [JR_BMOE4_Sub067] (puzzle: Brourd's mod of Exclusion 4)”, the “apparent KD of MS2 coat protein” value under setting [1] came out at 15.3 nM.
In the case of “UUUUUUUGGCAAGGAUAUCCUGUGCGGUUCCGGCUCGUGUCUGUUACAUGAGGAUCACCCAUGUGGGAGAAGGUGCCUGUGGUU [Design 87] (Eterna round: R96, puzzle: Exclusion NG 2)”, the “apparent KD of MS2 coat protein” value was 82.8 nM (input ligand: FMN 200 uM), 36.8 nM under setting [2] and 32.8 nM (input ligand: none).
Turning to “UUUUUUUUGCGAGGAUAUGCAUUUAGUUAGUUAGCAGAAGGCGCGUUUCUAUACUCCUCUUCGUACAUGAGGAUCACCCAUGUU [JR_ExcNG1_Sub032] (Eterna round: R96, puzzle: Exclusion NG 1)”, the “apparent KD of MS2 coat protein” value is 74.9 nM (input ligand: FMN 200 uM), 35.7 nM under setting [2] and 44.8 nM (input ligand: none).
